Laboratory results published in patent US20230406912A1, “HUMANISED ANTIBODIES AGAINST PATHOGENIC FUNGI” (priority 2020, published 2023).

Legend:
[1] = ELISA assay on laminarin-coated plates; format: binding
Experimental: The activity of the purified antibody was then tested by ELISA assay. 96-well plates were coated with 50 μg/ml Laminarin (Sigma-Aldrich, L9634) in 0.05 M carbonate buffer pH 9.6 overnight at 4° C. Nonspecific interactions were blocked with 100 μL/well blocking solution, 3% (w/v) BSA in PBS-Tween 20 (8 g/L NaCl, 0.2 g/L KH2PO4, 2.9 g/L Na2HPO4·12 H2O, 0.2 g/L KCI, 0.05% (v/v) Tween 20, pH 7.4) at 37° C. for 1 h. The plates were then incubated with decreasing concentrations of hmAb 2G8_first approach (comparative purpose) (from 3.12 μg/ml to 0.003 μg/ml, each concentration was tested in triplicate) in blocking solution for 2 h at 37° C. At the same temperature and for the same time, 100 μL Goat anti-human-HRP diluted 1:1000 in blocking solution was poured in each well. After every single passage the plates were washed 5 times with PBS-Tween 20. To reveal the binding, 100 μl of 5 mg-ABTS tablet (Roche Diagnostics) dissolved in 12 ml of sodium citrate (0.05 M, pH 3) and supplemented with 1:1000 dilution hydrogen peroxide (Carlo Erba) was added and after 15, 30, 45 and 60 min the absorbance at 405 nm was measured. For the whole measuring time the plates were left in the dark. IC50 analysis of ELISA test was performed with Prism. The TEST was performed in triplicate.
The surnatants collected from the obtained humanised mAb were tested in ELISA test.
Four supernatants from hmAb according to the invention (H5/K3; H5/K1; H5/K7; H5/K5) were purified to confirm the data. 8 scalar dilutions, starting from 5 μg/ml, were tested.
The purified humanised mAb 2G8 H5/K1 was then tested in an ELISA assay using laminarin as a target.

[2] = tested on: β-1,3-glucans on the surface of C. auris; test: Recognition of C. auris by flow cytometry and confocal microscopy; format: cell-based; conditions: 12 μg/ml mAb
Experimental: From an overnight inoculum, C. auris cells were washed with RPMI+MOPS (0.165 M, pH 7) and 3.0×10^6 cells were pelleted, suspended in Phosphate buffered saline (PBS) containing 3% (w/v) BSA (Bovine Serum Albumin—Sigma Aldrich) and put in contact with 12 μg/ml of the humanised mAb 2G8 for 1 hour at room temperature. The cells were then washed with PBS and marked with anti-human IgG FITC antibody 1:150 in PBS+3% BSA for 1 hour. The cells were then washed and fixed with paraformaldehyde 4% in PBS 1 hour at 4° C. After fixing and washing with PBS, the pellet was suspended in 400 μl of PBS and splitted in two tubes. The samples were analysed using flow cytometry and confocal microscopy, respectively.
A Flow cytometer (FACScanto II, BDBioscences, Erembodegem, Belgium), equipped with three lasers (488 nm, 633 nm, 405 nm) was employed to collect and quantitate FITC fluorescence from different samples. Both autofluorescence and fluorescence derived from a specific binding of FITC-conjugated secondary Ab were quantitated by Flow Cytometry. […] The histogram CTRL evaluates the background from aspecific binding of FITC-conjugated secondary Ab, enabling to fix the threshold defining the positivity for the humanised mAb H5/K1 (treated). 97% of events express the antigen (treated panel). The expression was precisely quantitated by MFI values: the fold of increase is 164, when compared to control (FIG. 12B). Light grey events in FIG. 12A histograms represent cells outside the scatter area mainly occupied by the cells: i.e. aggregates or increase in cell size (as during senescence).

C. auris = test: Growth inhibition assay (CFU count); format: cell-based; conditions: 18 h at 37° C.
Experimental: The growth inhibitory activity of humanised mAb 2G8 H5/K1 was tested as reported in W. Magliani et al, Nature Biotech. 1997; 15:155-158 with some modifications. In brief, 150-250 cells of C. auris in 10 μl of PBS were incubated with 100 μl of humanised mAb 2G8 at 250, 100 and 50 μg/ml (each concentration was tested in triplicate) and incubated for 18 h at 37° C. The inhibition was evaluated by seeding the yeast on PDA. The plates were incubated at 37° C. for 48 h and the inhibition was calculated by count of the CFU. The assay was performed in triplicate.

[3] = tested on: C. auris adhesion to HeLa cells; test: Adhesion assay, fungal adhesion to HeLa cell monolayer; format: cell-based; conditions: 12 μg/ml, HeLa:yeast 1:1, 1 hour
Experimental: In order to investigate the protective effect of hmAb 2G8 H5/K1 in preventing fungal adhesion to human cells commonly known to be preferred targets, C. auris cells were left adhering to a monolayer of HeLa cells together with the humanised mAb H5/K1, to reproduce an infection-medication scenario. 1.0×10^4 cervical cancer cells HeLa were suspended in RPMI+*10% FBS (pH 7) and plated in a 96-well plate for 2 hours at 37° C.+5% CO2. After incubation, the cells not attached at the bottom of the wells were washed away and 1.0×10^4 cells of C. auris suspended in RPMI+MOPS (0.165 M, pH 7) were added to reach a 1:1 ratio HeLa:yeast cells. Together with the yeast, 12 μg/ml of the humanised mAb 2G8 were added. PBS was used in the control sample. The plate was left at 37° C. for 1 hour and after washing 5 times, HeLa cells were lysed with PBS 0.1% Triton X100 (15 min. RT). The suspension was plated in PDA plate and incubated at 37° C. for 48 hours. This experiment has been repeated two times in triplicate.

B1: hmAb 2G8 H5/K1: humanised anti β-1,3 glucan mAb; heavy chain variable region H5 (SEQ ID NO: 22), light chain variable region K1 (SEQ ID NO: 15) (antibody, V domains shown)
VH: QVQLQQSGAELKKPGASVKISCKASGYTLSSYWLEWVRQRPGQGLEWIGEILPGSGSTNYNEKFKGRATFTADTSTNTAYMELSSLTSEDSAVYYCAREGWYFDVWGQGTTVTVSS
VL: DVVMTQSPLSLPVTLGQPASISCRSSQSLLYSNGNTHLNWFQQRPGQSPRRLIYLVSNRDSGVPDRFSGSGSGTDFTLKISRVEAEDVGVYYCVQGTHFPYTFGGGTKLEIK
modifications: VH-H5; VL-K1
activity / affinity compared with murine 2G8 ([1]; ELISA): performs better than the original murine one | Abs 405 nm ([1]; ELISA of supernatants of humanised mAbs): 3.48 | performance in ELISA assay of purified hmAbs ([1]; purified supernatants, 8 scalar dilutions from 5 μg/ml): best performer | binding on confocal images ([2]; confocal microscopy, FITC signal): recognize and bind β-1,3-glucans on the surface of C. auris | MFI fold of increase compared to control ([2]; flow cytometry): 164 fold | events expressing the antigen (FITC positive) ([2]; flow cytometry, 1 hour): 97% | inhibition of yeast cell growth (C. auris; 50 μg/ml): over 60% | inhibition of yeast cell growth (C. auris; 100 μg/ml): over 70% | inhibition of yeast cell growth (C. auris; 250 μg/ml): over 70% | reduction in fungal adhesion to mammalian cells [3]: 51.5%
